The test has as its system TCF/LEF response elements. Description: TOPflash luciferase reporter system (TCF/LEF response elements) in UMR-106 cells. Format: cell-based, rat. The text has this: We transiently infected UMR-106 cells (a rat sarcoma derived cell line) with a luciferase reporter system TOPflash containing 8 TCF/LEF response elements placed in the promoter region of the luciferase reporter gene.
To investigate the effect of secreted signals from osteoclasts we collected conditioned medium from osteoclasts cultured either on bone or on plastic, and compared their ability to induce activation of cells transiently transfected with the TCF/LEF reporter system to that of non-conditioned osteoclast culture medium. The cells were then treated for 24 hours with either control compounds, vehicle or the different conditioned media, after which the cells were lysed and the Luciferase activity was measured by a […] assay.

B1: Wnt3A: positive control for the TCF/LEF luciferase reporter (protein, UniProt P56704 19-352, looked up)
Protein Wnt-3a: SYPIWWSLAVGPQYSSLGSQPILCASIPGLVPKQLRFCRNYVEIMPSVAEGIKIGIQECQHQFRGRRWNCTTVHDSLAIFGPVLDKATRESAFVHAIASAGVAFAVTRSCAEGTAAICGCSSRHQGSPGKGWKWGGCSEDIEFGGMVSREFADARENRPDARSAMNRHNNEAGRQAIASHMHLKCKCHGLSGSCEVKTCWWSQPDFRAIGDFLKDKYDSASEMVVEKHRESRGWVETLRPRYTYFKVPTERDLVYYEASPNFCEPNPETGSFGTRDRTCNVSSHGIDGCDLLCCGRGHNARAERRREKCRCVFHWCCYVSCQECTRVYDVHTCK
As to B1, the “TCF/LEF activation (luciferase activity)” value (treated for 24 hours) is on record as “induces a strong activation”.

B2: DKK1: Wnt inhibitor (protein, UniProt O94907 32-266, looked up)
Dickkopf-related protein 1: TLNSVLNSNAIKNLPPPLGGAAGHPGSAVSAAPGILYPGGNKYQTIDNYQPYPCAEDEECGTDEYCASPTRGGDAGVQICLACRKRRKRCMRHAMCCPGNYCKNGICVSSDQNHFRGEIEETITESFGNDHSTLDGYSRRTTLSSKMYHTKGQEGSVCLRSSDCASGLCCARHFWSKICKPVLKEGQVCTKHRRKGSHGLEIFQRCYCGEGLSCRIQKDHHQASNSSRLHTCQRH
Turning to B2, under “24 hours”, the “inhibition of TCF/LEF activation induced by conditioned medium from osteoclasts on bone” value is “inhibited” and the “inhibition of TCF/LEF activation induced by signal from non-resorbing osteoclasts on plastic” value is on record as “again was inhibited”. Besides, the “inhibition of Wnt3A-induced TCF/LEF activation” value (activation by Wnt3A) was “inhibits this activation”.

The record behind these values is US20100093014A1, “SCREENING FOR BONE ANABOLIC FACTORS” (NORDIC BIOSCIENCE IMAGING A/S, priority 2007, published 2010).
